Experimental findings from US20090208538A1 are described below.

The target of test [1] is HLA-A*1501 (human). Description: iTopia net score.
The target in test [2] is HLA-A*1501 (human). Description: iTopia affinity.
For test [3], the target named is HLA-A*0201 (human). In words: iTopia net score.
Test [4] addresses HLA-A*0201 (human). Description: iTopia binding.
Test [5] deals with HLA-A*0201 (human). In words: iTopia affinity.

In test [1], LQQDLQLAA [cdr2 24-32 …] registered an iScore of 0.09. In test [2], this molecule yielded an ED50 of 42 µM.
On the same counts, the results for MRQMLQSEH [cdr2 257-265 …] are 0.075 and 170 µM.
As for QQLGATGAY [cdr2 235-243 …], the iScore in test [1] stood at 0.255. The ED50 in test [2] worked out at 8.6 µM.
In test [1], PSFACLKEL [cdr2 156-164 …] registered an iScore of 0.072. The molecule also yielded an ED50 in test [2] of 45 µM.
On the same counts, the results for LLRQMNEQH [cdr2 72-80 …] are 0.106 and 68 µM.
On the same counts, the results for RQKRVTMEE [cdr2 213-221 …] are 0.065 and 110 µM.
On to YDLRQHFVY [cdr2 165-173 …], for which, in test [1], the iScore was found to be 0.098. This molecule also had an ED50 in test [2] of 45 µM.
With MLQSEHPFV (modifications not checked) [cdr2 260-268 …], the iScore in test [3] turned out to be 0.584. The molecule also yielded a binding vs positive control in test [4] of over 30%. For the same molecule, in test [5], the ED50 came out at 2 µM.
